Test results reported in US10851401B2, “Broth microdilution method for evaluating and determining minimal inhibitory concentration of antibacterial polypeptides” (priority 2016, dated 2020).

Legend:
[1] = system: Staphylococcus aureus strains including MSSA and MRSA strains; test: Vancomycin in modified BMD method versus standard unsupplemented CA-MHB (FIG. 10); type: cell-based; details: comparison of the two media
Method: FIG. 10 depicts vancomycin activity assessed using the modified BMD method in comparison to method with standard CAMHB broth unsupplemented. Various Staphylococcus aureus strains including MSSA and MRSA strains were evaluated.
Standard antibiotic vancomycin was evaluated in the modified BMD method. The MIC50, MIC90 and range were equivalent using standard CA-MHB versus CA-MHB supplemented with horse serum and DTT (FIG. 10).

25 S. aureus strains = test: BMD MIC, validation of the horse serum/DTT method with varied sources, conditions and storage
S. aureus ATCC 700699 = test: BMD MIC assay of a single strain in CA-MHB, human blood matrices and supplemented broth
Charge (pI) = type: physicochemical
MRSA strain ATCC 29213 = test: MIC assays under different conditions (FIG. 7); details: MHBII alone
[2] = MIC assays under different conditions (FIG. 7)
S. aureus strains = test: Standard BMD susceptibility testing, broth versus human blood/serum/plasma; type: cell-based
Excerpt: The supplementation with DTT serves to stabilize lysin polypeptide and enable the use of frozen micro broth dilution panels for MIC determination. DTT is a common reducing agent used to prevent the oxidation and inactivation of enzymes during storage or in the context of in vitro assays.

[3] = clinical grade, recombinantly produced in E. coli; cited from earlier work
[4] = oxidation and inactivation of active-site cysteine thiol in MHB
[5] = system: 223 contemporary clinical MSSA and MRSA strains; test: First modified (stopgap) BMD method: polypropylene plates, MHBII with 1 mM DTT; type: cell-based, Staphylococcus aureus; details: MHBII supplemented with 1 mM DTT
Method: Two modified BMD methods were initially developed to test PlySs2/CF-301. In the first method, the major modifications were that polypropylene plates were used and MHBII was supplemented with 1 mM DTT. DTT (DL-Dithiothreitol) is a common molecular biology reagent used to keep enzymes in a reduced state. […] This procedure was a stop gap because of the use of polypropylene, a remaining disconnect from human blood MIC values, and problems with frozen panels.

30 S. aureus strains = test: Broth microdilution (BMD) MIC, identification of new testing conditions, panel of 30 strains
[6] = Bacterial inoculum 5 × 10^4 CFU/ml
[7] = Bacterial inoculum 5 × 10^5 CFU/ml (first line, r9)
[8] = Bacterial inoculum 5 × 10^5 CFU/ml (second line, r10)
[9] = Bacterial inoculum 5 × 10^6 CFU/ml
[10] = CAMHB source BBL BD (Powder), Freeze/Thaw no
[11] = CAMHB source BBL BD (Powder), Freeze/Thaw yes
[12] = CAMHB source BD (Liquid), Freeze/Thaw no
[13] = CAMHB source BD (Liquid), Freeze/Thaw yes
[14] = CAMHB source Sigma-Aldrich (Powder), Freeze/Thaw no
[15] = CAMHB source Sigma-Aldrich (Powder), Freeze/Thaw yes
[16] = CAMHB source Teknova (Liquid), Freeze/Thaw no
[17] = CAMHB source Teknova (Liquid), Freeze/Thaw yes
[18] = DTT source G-Biosciences (powder), Freeze/Thaw no
[19] = DTT source G-Biosciences (powder), Freeze/Thaw yes
[20] = DTT source Sigma (liquid), Freeze/Thaw no
[21] = DTT source Sigma (liquid), Freeze/Thaw yes
[22] = DTT source Sigma (powder), Freeze/Thaw no
[23] = DTT source Sigma (powder), Freeze/Thaw yes
[24] = Incubation condition: 5% CO^2 (37° C.)
[25] = Incubation condition: Ambient air (30° C.)
[26] = Incubation condition: Ambient air (37° C.)
[27] = horse serum/DTT method, reference value for the modifications tested
[28] = panels stored at −80° C. for 1 day
[29] = panels stored at −80° C. for 3 days
[30] = panels stored at −80° C. for 7 days
[31] = panels stored at −80° C. for 14 days
[32] = panels stored at −80° C. for 60 days
[33] = panels stored at −80° C. for 90 days
[34] = panels stored at −80° C. for 120 days
[35] = panels stored at −80° C. for 180 days
[36] = panels stored at −80° C. for 365 days
[37] = 100% Human Serum, Fresh dilutions
[38] = CAMHB, 0.5 mM DTT, Fresh dilutions
[39] = CAMHB, 25% horse serum, 0.5 mM DTT, Fresh dilutions
[40] = CAMHB, 25% horse serum, 0.5 mM DTT, Thawed
[41] = CAMHB, 25% horse serum, Fresh dilutions

CN[C@H](CC(C)C)C(=O)N[C@H]1C(=O)N[C@@H](CC(N)=O)C(=O)N[C@H]2C(=O)N[C@H]3C(=O)N[C@H](C(=O)N[C@H](C(=O)O)c4cc(O)cc(O)c4-c4cc3ccc4O)[C@H](O)c3ccc(c(Cl)c3)Oc3cc2cc(c3O[C@@H]2O[C@H](CO)[C@@H](O)[C@H](O)[C@H]2O[C@H]2C[C@](C)(N)[C@H](O)[C@H](C)O2)Oc2ccc(cc2Cl)[C@H]1O [vancomycin]
equivalent: MIC50, MIC90 and range, standard CA-MHB versus CA-MHB supplemented with horse serum and DTT [1]

B1: CF-301: bacteriophage lysin polypeptide derived from a Streptococcus suis prophage, amino acid sequence of FIG. 1 / SEQ ID NO: 1; 26 kDa bacteriolytic enzyme (protein, listed as Streptococcus suis)
chain: MTTVNEALNNVRAQVGSGVSVGNGECYALASWYERMISPDATVGLGAGVGWVSGAIGDTISAKNIGSSYNWQANGWTVSTSGPFKAGQIVTLGATPGNPYGHVVIVEAVDGDRLTILEQNYGGKRYPVRNYYSAASYRQQVVHYITPPGTVAQSAPNLAGSRSYRETGTMTVTVDALNVRRAPNTSGEIVAVYKRGESFDYDTVIIDVNGYVWVSYIGGSGKRNYVATGATKDGKRFGNAWGTFK
6-9.7 pH: pH range of activity [3]
128: MIC50 (30 S. aureus strains; [38]) | MIC90 (30 S. aureus strains; [38]) | MIC50 (30 S. aureus strains; CAMHB, 0.5 mM DTT, Thawed)
0.5 to 2 µg/mL: Range (25 S. aureus strains; [14]) | Range (25 S. aureus strains; [15])
1 to 16 µg/mL: MIC range [5]
64 µg/mL: MIC (S. aureus ATCC 700699; standard conditions, CA-MHB / MHBII) | MIC90 (S. aureus strains; CA-MHB)
strong: Trailing (30 S. aureus strains; [38]) | Trailing (30 S. aureus strains; CAMHB, 0.5 mM DTT, Thawed) | Trailing (30 S. aureus strains; CAMHB, Fresh dilutions) | Trailing (30 S. aureus strains; CAMHB, Thawed (frozen-thawed dilution panels))
0.25-1: Range (25 S. aureus strains; [28]) | Range (25 S. aureus strains; [30]) | Range (25 S. aureus strains; [35])
8-256: Range (30 S. aureus strains; [38])
1 µg/mL: MIC90 (25 S. aureus strains; [6]) | MIC90 (25 S. aureus strains; [7]) | MIC90 (25 S. aureus strains; [8]) | MIC90 (25 S. aureus strains; [9]) | MIC90 (25 S. aureus strains; [10]) | MIC90 (25 S. aureus strains; [11]) | MIC90 (25 S. aureus strains; [12]) | MIC90 (25 S. aureus strains; [13]) | MIC50 (25 S. aureus strains; [14]) | MIC50 (25 S. aureus strains; [15]) | MIC90 (25 S. aureus strains; [16]) | MIC90 (25 S. aureus strains; [17]) | MIC (25 S. aureus strains; [18]) | MIC (25 S. aureus strains; [19]) | MIC (25 S. aureus strains; [20]) | MIC (25 S. aureus strains; [21]) | MIC (25 S. aureus strains; [22]) | MIC (25 S. aureus strains; [23]) | MIC90 (25 S. aureus strains; Final pH: Adjusted to pH 7.0) | MIC50 (25 S. aureus strains; Final pH: Adjusted to pH 8.0) | MIC90 (25 S. aureus strains; Final pH: Adjusted to pH 8.0) | MIC90 (25 S. aureus strains; Final pH: Unadjusted (pH 7.4)) | MIC90 (25 S. aureus strains; [24]) | MIC90 (25 S. aureus strains; [25]) | MIC90 (25 S. aureus strains; [26]) | MIC90 (25 S. aureus strains; [27]) | MIC (S. aureus ATCC 700699; human blood) | MIC ([2]; 100% human serum) | MIC90 (S. aureus strains; human blood/serum/plasma)
0.5: MIC^50 (25 S. aureus strains; [28]) | MIC^90 (25 S. aureus strains; [28]) | MIC^50 (25 S. aureus strains; [29]) | MIC^50 (25 S. aureus strains; [30]) | MIC^90 (25 S. aureus strains; [30]) | MIC^50 (25 S. aureus strains; [31]) | MIC^50 (25 S. aureus strains; [32]) | MIC^90 (25 S. aureus strains; [32]) | MIC^50 (25 S. aureus strains; [33]) | MIC^50 (25 S. aureus strains; [34]) | MIC^50 (25 S. aureus strains; [35]) | MIC^90 (25 S. aureus strains; [35]) | MIC^50 (25 S. aureus strains; [36]) | MIC^90 (25 S. aureus strains; [36]) | MIC50 (30 S. aureus strains; [39]) | MIC50 (30 S. aureus strains; [40])
2-128: Range (30 S. aureus strains; CAMHB, Fresh dilutions)
0.25 to 2 µg/mL: Range (25 S. aureus strains; [7]) | Range (25 S. aureus strains; [8]) | Range (25 S. aureus strains; [10]) | Range (25 S. aureus strains; [11]) | Range (25 S. aureus strains; [18]) | Range (25 S. aureus strains; [19]) | Range (25 S. aureus strains; [20]) | Range (25 S. aureus strains; [21]) | Range (25 S. aureus strains; [22]) | Range (25 S. aureus strains; [23]) | Range (25 S. aureus strains; Final pH: Adjusted to pH 7.0) | Range (25 S. aureus strains; Final pH: Adjusted to pH 8.0) | Range (25 S. aureus strains; Final pH: Unadjusted (pH 7.4)) | Range (25 S. aureus strains; [24]) | Range (25 S. aureus strains; [26]) | MIC range (25 S. aureus strains; [27])
9.2: pI (Charge (pI))
0.25 to 1 µg/mL: Range (25 S. aureus strains; [6]) | Range (25 S. aureus strains; [9]) | Range (25 S. aureus strains; [12]) | Range (25 S. aureus strains; [13]) | Range (25 S. aureus strains; [16]) | Range (25 S. aureus strains; [17]) | Range (25 S. aureus strains; [25])
~5 h: half-life in MHB [4]
1: MIC^90 (25 S. aureus strains; [29]) | MIC^90 (25 S. aureus strains; [31]) | MIC^90 (25 S. aureus strains; [33]) | MIC^90 (25 S. aureus strains; [34]) | MIC90 (30 S. aureus strains; [39]) | MIC90 (30 S. aureus strains; [40])
slight trailing effect: trailing effect (MRSA strain ATCC 29213)
0.125-2: Range (30 S. aureus strains; [37])
~70%: S. aureus strains showing trailing (or Eagle) effect (S. aureus strains; broth microdilution (BMD))
0.25-2: Range (25 S. aureus strains; [29]) | Range (25 S. aureus strains; [31]) | Range (25 S. aureus strains; [32]) | Range (25 S. aureus strains; [33]) | Range (25 S. aureus strains; [34]) | Range (25 S. aureus strains; [36]) | Range (30 S. aureus strains; [39]) | Range (30 S. aureus strains; [40])
0.5-4: Range (30 S. aureus strains; [41])
256: MIC90 (30 S. aureus strains; CAMHB, 0.5 mM DTT, Thawed)
8 µg/mL: MIC90 [5]
no significant effect: effect of prolonged incubation of panels at −80° C. on MIC (25 S. aureus strains; assayed up to 365 days)
16-55 °C: temperature range of activity [3]
0.5-8: Range (30 S. aureus strains; CAMHB, 25% horse serum, Thawed)
none: Trailing (30 S. aureus strains; [37]) | Trailing (30 S. aureus strains; [39]) | Trailing (30 S. aureus strains; [40]) | Trailing (30 S. aureus strains; [41]) | Trailing (30 S. aureus strains; CAMHB, 25% horse serum, Thawed)
16 µg/mL: MIC ([2]; MHBII alone)
0.5 µg/mL: MIC50 (25 S. aureus strains; [6]) | MIC50 (25 S. aureus strains; [7]) | MIC50 (25 S. aureus strains; [8]) | MIC50 (25 S. aureus strains; [9]) | MIC50 (25 S. aureus strains; [10]) | MIC50 (25 S. aureus strains; [11]) | MIC50 (25 S. aureus strains; [12]) | MIC50 (25 S. aureus strains; [13]) | MIC50 (25 S. aureus strains; [16]) | MIC50 (25 S. aureus strains; [17]) | MIC50 (25 S. aureus strains; [18]) | MIC50 (25 S. aureus strains; [19]) | MIC50 (25 S. aureus strains; [20]) | MIC50 (25 S. aureus strains; [21]) | MIC50 (25 S. aureus strains; [22]) | MIC50 (25 S. aureus strains; [23]) | MIC50 (25 S. aureus strains; Final pH: Adjusted to pH 7.0) | MIC50 (25 S. aureus strains; Final pH: Unadjusted (pH 7.4)) | MIC50 (25 S. aureus strains; [24]) | MIC50 (25 S. aureus strains; [25]) | MIC50 (25 S. aureus strains; [26]) | MIC50 (25 S. aureus strains; [27])
2 µg/mL: MIC90 (25 S. aureus strains; [14]) | MIC90 (25 S. aureus strains; [15])
